Results: PMC11267001, “RhoG facilitates a conformational transition in the guanine nucleotide exchange factor complex DOCK5/ELMO1 to an open state” (The Journal of Biological Chemistry, 2024)

Legend:
[1] = molecular target: human full-length ELMO1 (ELMO1^FL, residues 1-727) (human, UniProt Q92556 1-727); test: cryo-EM structure; DOCK5^ΔC/ELMO1^FL/Rac1^G15A (0.9 μM) mixed with RhoG^Q61L (15 μM), cross-linked with 1 mM BS3, SEC; 20 mM HEPES-NaOH pH 8.0, 300 mM NaCl, 1 mM TCEP, 0.06% digitonin; settings: both partners purified
[2] = molecular target: C-terminal truncated DOCK5 (DOCK5^ΔC, residues 1-1642) (human, UniProt Q9H7D0 1-1642); test: as above; settings: both partners purified

- binding result [1]: binds
- binding result [2]: binds
B1: constitutively active RhoG^Q61L mutant (GTPase domain, residues 1-184) (domain or fragment)
chain: not shown
